From the supplement of paper PMC7125110 come the findings set out here.

B1: glmS ribozyme (parent)
chain: AUAAAAGCGCCAGAACUACAGAAAUGUAGUUGACGAGGAGGAGGUUUAUCGAAUUUUCGGCGGAUGCCUCCAAA

± gives the standard error. For part of these data: This sample holds only a part of the variants without activity. Some results are limits rather than exact numbers.

Holding throughout (conditions): with glucosamine-6-phosphate
Variants of B1 are the subject of data set [1]. As to the kind of experiment: kcat; higher = faster cleavage; RNA array. The method, boiled down: (§1)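 Barcoded ribozyme variants on sequenced MiSeq chips were transcribed in situ by E. coli RNA polymerase and followed at 37 °C through a hybridised Cy3 probe. Glucosamine-6-phosphate at 40 μM to 10 mM in HEPES/KCl/Mg(OAc)2 buffer was flowed in, and tiles were imaged over ~14 h. Signals were normalised to baseline and to non-cleaving reference variants, and per-tile medians were fit to one- or two-exponential decays to give kobs. Weighted Michaelis–Menten fits across concentrations gave kcat and KM.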

Variants of B1 are the subject of data set [2]. Nature of the data set: KM; higher = weaker cofactor use; RNA array. The method, boiled down: as §1
Data set [3] covers variants of B1. As to the kind of experiment: self-cleavage kobs at 40 uM GlcN6P; higher = faster cleavage; RNA array. Summed up: as §1
Data set [4] covers variants of B1. Nature of the data set: self-cleavage kobs at 160 uM GlcN6P; higher = faster cleavage; RNA array. Summed up: as §1
Data set [5] covers variants of B1. As to the kind of experiment: self-cleavage kobs at 640 uM GlcN6P; higher = faster cleavage; RNA array. Summed up: as §1
Variants of B1 are the subject of data set [6]. As to the kind of experiment: self-cleavage kobs at 2500 uM GlcN6P; higher = faster cleavage; RNA array. The method, boiled down: as §1
The variants in data set [7] derive from B1. As to the kind of experiment: self-cleavage kobs at 10000 uM GlcN6P; higher = faster cleavage; RNA array. The method, boiled down: as §1

Broadly, the kcat is the maximal rate divided by the concentration of active sites. Broadly, the KM is the substrate concentration at which the rate is half of its maximum. For the variant U55G C71A, in the data set with glucosamine-6-phosphate [1], the kcat came out at 0.00224 ± 0.00065 s⁻¹. Also, in the data set with glucosamine-6-phosphate [2], the KM stood at 528 ± 220 µM. Besides, the “self-cleavage kobs at 40 uM GlcN6P” value with glucosamine-6-phosphate [3] was found to be 0.000162 ± 2.2e-05 s⁻¹. Besides, the “self-cleavage kobs at 160 uM GlcN6P” value with glucosamine-6-phosphate [4] was 0.000541 ± 0.00013 s⁻¹. Moreover, in the data set with glucosamine-6-phosphate [5], the “self-cleavage kobs at 640 uM GlcN6P” value is 0.00113 ± 0.00015 s⁻¹. In addition, the “self-cleavage kobs at 2500 uM GlcN6P” value with glucosamine-6-phosphate [6] came to 0.00315 ± 0.00085 s⁻¹.
In the case of A48U U55G, the catalytic constant (kcat) with glucosamine-6-phosphate [1] worked out at 0.000482 ± 2.4e-05 s⁻¹. Further, in the data set with glucosamine-6-phosphate [2], the Michaelis-Menten constant (KM) was found to be 3300 ± 360 µM. The “self-cleavage kobs at 640 uM GlcN6P” value with glucosamine-6-phosphate [5] stood at 7.42e-05 ± 2.3e-05 s⁻¹. Also, in the data set with glucosamine-6-phosphate [6], the “self-cleavage kobs at 2500 uM GlcN6P” value amounted to 0.000226 ± 5.6e-05 s⁻¹. Further, the “self-cleavage kobs at 10000 uM GlcN6P” value with glucosamine-6-phosphate [7] is 0.000359 ± 4.8e-05 s⁻¹.
For the variant C10G U49C, in the data set with glucosamine-6-phosphate [1], the kcat is less than 1e-05 s⁻¹. Besides, the “self-cleavage kobs at 40 uM GlcN6P” value with glucosamine-6-phosphate [3] is less than 1e-05 s⁻¹. Also, the “self-cleavage kobs at 160 uM GlcN6P” value with glucosamine-6-phosphate [4] was less than 1e-05 s⁻¹. Further, the “self-cleavage kobs at 2500 uM GlcN6P” value with glucosamine-6-phosphate [6] was less than 1e-05 s⁻¹. Further, the “self-cleavage kobs at 10000 uM GlcN6P” value with glucosamine-6-phosphate [7] was less than 1e-05 s⁻¹.
Consider A6C C71U, for which the kcat with glucosamine-6-phosphate [1] turned out to be 9.59e-05 ± 6.3e-06 s⁻¹. Besides, the Michaelis-Menten constant (KM) in the data set with glucosamine-6-phosphate [2] worked out at 1150 ± 280 µM. The “self-cleavage kobs at 640 uM GlcN6P” value in the data set with glucosamine-6-phosphate [5] turned out to be 2.89e-05 ± 1.2e-05 s⁻¹. In addition, the “self-cleavage kobs at 2500 uM GlcN6P” value with glucosamine-6-phosphate [6] turned out to be 7.07e-05 ± 9.3e-06 s⁻¹. In addition, the “self-cleavage kobs at 10000 uM GlcN6P” value in the data set with glucosamine-6-phosphate [7] was found to be 8.35e-05 ± 9.7e-06 s⁻¹.
On to G43A C68A, for which the kcat with glucosamine-6-phosphate [1] turned out to be 2.1e-05 ± 8.5e-06 s⁻¹.
With A14G U49G, the kcat in the data set with glucosamine-6-phosphate [1] came to 0.00278 ± 0.00095 s⁻¹. In the data set with glucosamine-6-phosphate [3], the “self-cleavage kobs at 40 uM GlcN6P” value was determined as 7.8e-05 ± 1.6e-05 s⁻¹. In addition, the “self-cleavage kobs at 640 uM GlcN6P” value with glucosamine-6-phosphate [5] was 0.000937 ± 0.00022 s⁻¹. In addition, the “self-cleavage kobs at 2500 uM GlcN6P” value in the data set with glucosamine-6-phosphate [6] was determined as 0.00109 ± 0.0003 s⁻¹. Further, the “self-cleavage kobs at 10000 uM GlcN6P” value in the data set with glucosamine-6-phosphate [7] came out at 0.00302 ± 0.00044 s⁻¹.
A6U C16A: the kcat in the data set with glucosamine-6-phosphate [1] was found to be 1.85e-05 ± 5.8e-06 s⁻¹.
Regarding U30C G66U, the kcat with glucosamine-6-phosphate [1] was less than 1e-05 s⁻¹. Also, the “self-cleavage kobs at 160 uM GlcN6P” value in the data set with glucosamine-6-phosphate [4] was less than 1e-05 s⁻¹.
Regarding G13C G32C, the catalytic constant (kcat) with glucosamine-6-phosphate [1] was found to be 0.000728 ± 0.00016 s⁻¹. Further, the KM in the data set with glucosamine-6-phosphate [2] came to 3050 ± 1200 µM. Also, the “self-cleavage kobs at 160 uM GlcN6P” value in the data set with glucosamine-6-phosphate [4] is 4.58e-05 ± 1.6e-05 s⁻¹. Also, in the data set with glucosamine-6-phosphate [5], the “self-cleavage kobs at 640 uM GlcN6P” value turned out to be 0.000109 ± 2.2e-05 s⁻¹. Besides, the “self-cleavage kobs at 2500 uM GlcN6P” value with glucosamine-6-phosphate [6] was 0.000408 ± 7e-05 s⁻¹. In addition, the “self-cleavage kobs at 10000 uM GlcN6P” value with glucosamine-6-phosphate [7] is 0.000534 ± 7.8e-05 s⁻¹.
For the variant A6U U45G, the catalytic constant (kcat) with glucosamine-6-phosphate [1] came to 0.000193 ± 3.9e-05 s⁻¹. Also, in the data set with glucosamine-6-phosphate [4], the “self-cleavage kobs at 160 uM GlcN6P” value is less than 1e-05 s⁻¹. Besides, the “self-cleavage kobs at 10000 uM GlcN6P” value with glucosamine-6-phosphate [7] was 4.41e-05 ± 9.1e-06 s⁻¹.
As for A14C A53U, the kcat in the data set with glucosamine-6-phosphate [1] is 0.00451 ± 0.00085 s⁻¹. Also, the Michaelis constant (KM) in the data set with glucosamine-6-phosphate [2] turned out to be 2930 ± 790 µM. Further, the “self-cleavage kobs at 40 uM GlcN6P” value with glucosamine-6-phosphate [3] is 7.8e-05 ± 7.6e-06 s⁻¹. In the data set with glucosamine-6-phosphate [4], the “self-cleavage kobs at 160 uM GlcN6P” value was determined as 0.000184 ± 2.7e-05 s⁻¹. Moreover, in the data set with glucosamine-6-phosphate [5], the “self-cleavage kobs at 640 uM GlcN6P” value is 0.000737 ± 0.00012 s⁻¹. In addition, the “self-cleavage kobs at 2500 uM GlcN6P” value with glucosamine-6-phosphate [6] stood at 0.00214 ± 0.00026 s⁻¹. Moreover, the “self-cleavage kobs at 10000 uM GlcN6P” value with glucosamine-6-phosphate [7] was found to be 0.0035 ± 0.00029 s⁻¹.
As for G44A G66A, the kcat with glucosamine-6-phosphate [1] amounted to 0.000681 ± 0.00022 s⁻¹. The “self-cleavage kobs at 160 uM GlcN6P” value with glucosamine-6-phosphate [4] was 4.37e-05 ± 1.7e-05 s⁻¹. Besides, in the data set with glucosamine-6-phosphate [5], the “self-cleavage kobs at 640 uM GlcN6P” value amounted to 0.000259 ± 4.6e-05 s⁻¹. Further, the “self-cleavage kobs at 2500 uM GlcN6P” value with glucosamine-6-phosphate [6] was determined as 0.000848 ± 0.00022 s⁻¹. Further, in the data set with glucosamine-6-phosphate [7], the “self-cleavage kobs at 10000 uM GlcN6P” value was found to be 0.000527 ± 0.0001 s⁻¹.
A12C A42U: the kcat with glucosamine-6-phosphate [1] came to 0.000217 ± 1.2e-05 s⁻¹. The Michaelis constant (KM) with glucosamine-6-phosphate [2] was 1230 ± 230 µM. In the data set with glucosamine-6-phosphate [4], the “self-cleavage kobs at 160 uM GlcN6P” value came to 3.19e-05 ± 1e-05 s⁻¹. Moreover, in the data set with glucosamine-6-phosphate [5], the “self-cleavage kobs at 640 uM GlcN6P” value stood at 6.67e-05 ± 1.1e-05 s⁻¹. Further, the “self-cleavage kobs at 2500 uM GlcN6P” value with glucosamine-6-phosphate [6] was found to be 0.00016 ± 2.1e-05 s⁻¹. The “self-cleavage kobs at 10000 uM GlcN6P” value with glucosamine-6-phosphate [7] was 0.000192 ± 1.2e-05 s⁻¹.
As to G29C U69C, the catalytic constant (kcat) with glucosamine-6-phosphate [1] was 0.000103 ± 2.8e-05 s⁻¹. Further, the “self-cleavage kobs at 160 uM GlcN6P” value with glucosamine-6-phosphate [4] was 8.98e-05 ± 2.2e-05 s⁻¹. In addition, the “self-cleavage kobs at 640 uM GlcN6P” value with glucosamine-6-phosphate [5] is 0.000129 ± 2.2e-05 s⁻¹. In the data set with glucosamine-6-phosphate [6], the “self-cleavage kobs at 2500 uM GlcN6P” value stood at 0.000164 ± 3e-05 s⁻¹. In addition, the “self-cleavage kobs at 10000 uM GlcN6P” value with glucosamine-6-phosphate [7] worked out at 6.68e-05 ± 1.6e-05 s⁻¹.
Consider G59U, for which, in the data set with glucosamine-6-phosphate [1], the kcat is 5.77e-05 ± 1.4e-06 s⁻¹. Moreover, in the data set with glucosamine-6-phosphate [2], the Michaelis constant (KM) is 1210 ± 130 µM. In addition, the “self-cleavage kobs at 40 uM GlcN6P” value in the data set with glucosamine-6-phosphate [3] is less than 1e-05 s⁻¹. Also, the “self-cleavage kobs at 640 uM GlcN6P” value with glucosamine-6-phosphate [5] was determined as 1.83e-05 ± 1.7e-06 s⁻¹. Besides, in the data set with glucosamine-6-phosphate [6], the “self-cleavage kobs at 2500 uM GlcN6P” value is 4.03e-05 ± 1.3e-06 s⁻¹. In addition, the “self-cleavage kobs at 10000 uM GlcN6P” value in the data set with glucosamine-6-phosphate [7] worked out at 5.11e-05 ± 9.9e-07 s⁻¹.
As to U45A U54A, the catalytic constant (kcat) with glucosamine-6-phosphate [1] stood at 0.115 ± 0.045 s⁻¹. Moreover, the KM with glucosamine-6-phosphate [2] worked out at 2630 ± 1200 µM. Further, the “self-cleavage kobs at 40 uM GlcN6P” value with glucosamine-6-phosphate [3] was 0.00179 ± 0.00033 s⁻¹. For the same variant, the “self-cleavage kobs at 160 uM GlcN6P” value with glucosamine-6-phosphate [4] amounted to 0.00611 ± 0.0017 s⁻¹. In addition, the “self-cleavage kobs at 640 uM GlcN6P” value in the data set with glucosamine-6-phosphate [5] turned out to be 0.0204 ± 0.0069 s⁻¹. The “self-cleavage kobs at 2500 uM GlcN6P” value in the data set with glucosamine-6-phosphate [6] came to 0.122 ± 0.049 s⁻¹. For the same variant, the “self-cleavage kobs at 10000 uM GlcN6P” value in the data set with glucosamine-6-phosphate [7] was determined as 0.0819 ± 0.035 s⁻¹.
